Assay results from patent US20080181891A1 (Pfizer, published 2008).

Assays:
[1] = target: T1, mouse IGF-IR (mouse, UniProt Q60751 31-1373); assay: cells treated with antibody, IGF-I stimulation, immunoprecipitation of IGF-IR and Western blot
T1 construct: whole, on cells
Protocol: To perform immunoprecipitation experiments, cells were plated in DMEM high glucose media supplemented with L-glutamine (0.29 mg/ml), 10% heat-inactivated FBS, and 500 μg/ml each of geneticin, penicillin and streptomycin to 50% confluence in T25 flasks. 100 μl of an antibody of the invention in Hank's buffered saline solution (HBSS; Gibco BRL) at a concentration of 1 μg/ml was added. The plates were incubated for 30 minutes at 37° C. in an incubator and then stimulated cells with IGF-I at 100 ng/ml for 10 minutes at room temperature. The cells were lysed in RIPA buffer (Harlow and Lane, supra) and immunoprecipitated the IGF-IR with 2 μg of pan-specific SC-713 anti-IGF-IR antibody (Santa Cruz) plus protein A agarose beads for 1 hour at 4° C. The beads were pelleted and washed three times with PBS/T (PBS+0.1% Tween-20) and then boiled in 40 μl Laemmli buffer containing 5% ME.
The samples prepared as described above were then analyzed by Western blot. 12 μl of each sample were loaded per lane on 4-10% gradient Novex™ gels run with 1×MES buffer (Novex™). Gels were run at 150V for 1 hour or at 200V for approximately 30 minutes. The gel was transferred to a membrane in Novex™ transfer buffer with 10% methanol either overnight at 100 mA or for 1-1.5 hours at 250 mA. […]

[2] = target: T2, cynomolgus monkey IGF-IR (cynomolgus monkey, UniProt G7P9I7 31-1343); assay: flow cytometry, biotinylated antibody on cynomolgus tissue culture cells, half maximal binding
T2 construct: whole, on cells; also called IGF-IR on cynomolgus tissue culture cells
Protocol: (§1) FACS analysis was performed to determine the affinity of the antibody of the invention for IGF-IR from other animals, particularly the old world monkeys described above. Aliquots of human and monkey cells (cynomolgus) (5×10⁵) were incubated for 1 hour on ice with increasing concentrations of biotinylated anti-IGF-IR antibodies of the invention. The samples were incubated for 30 minutes on ice with streptavidin-conjugated RPE (phycoerythrin). Binding was measured by flow cytometry and analyzed with the histograms of fluorescence intensity (FI2-H) versus cell number (Counts) using CellQuest software. Binding (Kd) was calculated for each antibody from graphs of mean fluorescence intensity versus antibody concentration. In most experiments, binding was measured in cultured human MCF-7 cells and cynomolgus tissue culture cells. Depletion of the antibody was controlled by measuring binding over a range of cell concentrations.

[3] = target: T3, human insulin-like growth factor I receptor (IGF-IR) (human, UniProt P08069 31-1367); assay: flow cytometry, biotinylated antibody on human cells (MCF-7), half maximal binding
T3 construct: whole, on cells; also called IGF-1R; human IGF-IR
Protocol: as §1

[4] = target: T3, human insulin-like growth factor I …; assay: competition with [125I]-IGF-I for binding to IGF-IR-transfected NIH-3T3 cells, scintillation counting
Protocol: […] experiments were performed to quantitate the ability of the antibody of the invention to inhibit IGF-I binding to IGF-IR in a cell-based assay. IGF-IR-transfected NIH-3T3 cells (5×10⁴/ml) were plated in 100 μl of DMEM high glucose media supplemented with L-glutamine (0.29 mg/ml), 10% heat-inactivated FBS, and 500 μg/ml each of geneticin, penicillin and streptomycin in 96-well U-bottom plates. The plates were incubated at 37° C., 5% CO₂ overnight to allow cells to attach. The media was decanted from the plates and replaced with 100 μl fresh media per well. For testing, the antibody was diluted in assay media (DMEM high glucose media supplemented with L-glutamine, 10% heat-inactivated FBS, 200 μg/ml BSA and 500 μg/ml each of geneticin, penicillin and streptomycin) to the desired final concentration. All samples were performed in triplicate. The plates were incubated at 37° C. for ten minutes. The [¹²⁵I]-IGF-I was diluted to a concentration of 1 μCi/ml in assay media and added 50 μl per well of the plate. As a control for background radioactivity, cold IGF-I was added to a final concentration of 100 ng/ml. […] The samples were transferred to a scintillation plate, 150 μl OptiPhase Supermix was added and the signal was read using a Wallace MicroBeta counter. […]

[5] = target: T3, human insulin-like growth factor I …; assay: cell-based or functional assay

T3 sequence (P08069 31-1367): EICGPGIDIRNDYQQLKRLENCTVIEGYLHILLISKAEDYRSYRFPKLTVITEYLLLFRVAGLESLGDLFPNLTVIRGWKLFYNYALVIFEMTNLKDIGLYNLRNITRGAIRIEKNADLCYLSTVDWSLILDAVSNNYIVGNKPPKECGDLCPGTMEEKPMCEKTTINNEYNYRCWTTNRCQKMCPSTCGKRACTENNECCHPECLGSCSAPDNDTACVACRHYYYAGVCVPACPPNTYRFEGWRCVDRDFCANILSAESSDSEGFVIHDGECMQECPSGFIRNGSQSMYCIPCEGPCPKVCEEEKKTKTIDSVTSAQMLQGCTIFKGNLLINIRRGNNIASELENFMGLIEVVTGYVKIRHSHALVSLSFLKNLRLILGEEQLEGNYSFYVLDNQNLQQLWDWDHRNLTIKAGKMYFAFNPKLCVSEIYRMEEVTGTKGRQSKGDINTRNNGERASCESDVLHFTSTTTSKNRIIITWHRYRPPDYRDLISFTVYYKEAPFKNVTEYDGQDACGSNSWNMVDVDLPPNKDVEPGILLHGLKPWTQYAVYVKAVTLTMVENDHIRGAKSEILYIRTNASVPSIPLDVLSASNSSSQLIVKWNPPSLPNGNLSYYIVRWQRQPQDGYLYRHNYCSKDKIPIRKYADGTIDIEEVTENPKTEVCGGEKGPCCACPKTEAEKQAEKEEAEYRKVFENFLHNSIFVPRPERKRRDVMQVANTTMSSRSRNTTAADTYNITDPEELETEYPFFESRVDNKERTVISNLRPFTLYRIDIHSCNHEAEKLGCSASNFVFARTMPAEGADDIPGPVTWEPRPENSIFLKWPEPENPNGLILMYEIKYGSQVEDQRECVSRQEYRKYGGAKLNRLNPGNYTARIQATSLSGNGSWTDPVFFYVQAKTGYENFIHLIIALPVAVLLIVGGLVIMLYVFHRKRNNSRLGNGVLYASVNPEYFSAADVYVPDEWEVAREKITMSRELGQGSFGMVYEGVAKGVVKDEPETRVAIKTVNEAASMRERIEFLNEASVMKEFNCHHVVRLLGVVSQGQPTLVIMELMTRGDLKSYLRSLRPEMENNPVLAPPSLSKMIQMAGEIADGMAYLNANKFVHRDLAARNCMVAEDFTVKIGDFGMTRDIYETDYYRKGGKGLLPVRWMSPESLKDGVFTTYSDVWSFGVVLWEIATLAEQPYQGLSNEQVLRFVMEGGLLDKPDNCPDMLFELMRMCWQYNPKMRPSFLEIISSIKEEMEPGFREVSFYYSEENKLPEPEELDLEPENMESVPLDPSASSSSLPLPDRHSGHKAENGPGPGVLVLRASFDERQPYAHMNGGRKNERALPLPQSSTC
T2 sequence (G7P9I7 entry or part of it): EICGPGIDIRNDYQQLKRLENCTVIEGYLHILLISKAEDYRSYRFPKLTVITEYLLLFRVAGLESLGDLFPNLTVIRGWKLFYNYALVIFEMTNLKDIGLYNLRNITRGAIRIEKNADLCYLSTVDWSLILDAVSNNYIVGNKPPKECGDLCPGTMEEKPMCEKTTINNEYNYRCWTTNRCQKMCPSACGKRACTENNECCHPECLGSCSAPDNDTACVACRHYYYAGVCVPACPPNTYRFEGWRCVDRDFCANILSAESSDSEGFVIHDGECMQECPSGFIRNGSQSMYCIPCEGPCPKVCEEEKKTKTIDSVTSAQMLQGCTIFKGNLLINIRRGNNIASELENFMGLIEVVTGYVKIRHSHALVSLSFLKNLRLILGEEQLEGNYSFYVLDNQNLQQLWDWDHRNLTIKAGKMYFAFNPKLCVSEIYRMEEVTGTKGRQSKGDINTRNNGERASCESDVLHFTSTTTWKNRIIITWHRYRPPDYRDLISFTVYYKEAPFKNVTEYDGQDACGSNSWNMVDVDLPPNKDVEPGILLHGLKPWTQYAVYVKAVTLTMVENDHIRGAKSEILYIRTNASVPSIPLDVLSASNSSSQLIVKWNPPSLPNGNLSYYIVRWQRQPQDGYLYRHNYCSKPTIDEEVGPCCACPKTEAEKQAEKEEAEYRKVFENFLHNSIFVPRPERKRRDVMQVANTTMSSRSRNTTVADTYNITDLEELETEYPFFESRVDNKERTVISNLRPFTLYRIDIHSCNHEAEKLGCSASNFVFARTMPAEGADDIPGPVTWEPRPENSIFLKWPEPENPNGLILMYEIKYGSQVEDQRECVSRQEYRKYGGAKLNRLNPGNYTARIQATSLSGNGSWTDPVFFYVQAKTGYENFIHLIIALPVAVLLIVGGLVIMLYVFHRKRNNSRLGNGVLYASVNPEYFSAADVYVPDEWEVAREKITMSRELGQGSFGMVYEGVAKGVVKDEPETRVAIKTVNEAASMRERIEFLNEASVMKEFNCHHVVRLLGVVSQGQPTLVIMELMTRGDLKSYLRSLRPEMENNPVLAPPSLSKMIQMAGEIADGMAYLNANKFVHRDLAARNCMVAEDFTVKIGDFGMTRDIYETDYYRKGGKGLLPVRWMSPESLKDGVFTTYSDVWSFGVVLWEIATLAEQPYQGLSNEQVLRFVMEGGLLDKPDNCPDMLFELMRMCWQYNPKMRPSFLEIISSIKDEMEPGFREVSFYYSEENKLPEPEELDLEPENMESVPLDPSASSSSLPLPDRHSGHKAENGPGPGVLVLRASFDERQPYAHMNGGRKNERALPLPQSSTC
T1 sequence (Q60751 31-1373): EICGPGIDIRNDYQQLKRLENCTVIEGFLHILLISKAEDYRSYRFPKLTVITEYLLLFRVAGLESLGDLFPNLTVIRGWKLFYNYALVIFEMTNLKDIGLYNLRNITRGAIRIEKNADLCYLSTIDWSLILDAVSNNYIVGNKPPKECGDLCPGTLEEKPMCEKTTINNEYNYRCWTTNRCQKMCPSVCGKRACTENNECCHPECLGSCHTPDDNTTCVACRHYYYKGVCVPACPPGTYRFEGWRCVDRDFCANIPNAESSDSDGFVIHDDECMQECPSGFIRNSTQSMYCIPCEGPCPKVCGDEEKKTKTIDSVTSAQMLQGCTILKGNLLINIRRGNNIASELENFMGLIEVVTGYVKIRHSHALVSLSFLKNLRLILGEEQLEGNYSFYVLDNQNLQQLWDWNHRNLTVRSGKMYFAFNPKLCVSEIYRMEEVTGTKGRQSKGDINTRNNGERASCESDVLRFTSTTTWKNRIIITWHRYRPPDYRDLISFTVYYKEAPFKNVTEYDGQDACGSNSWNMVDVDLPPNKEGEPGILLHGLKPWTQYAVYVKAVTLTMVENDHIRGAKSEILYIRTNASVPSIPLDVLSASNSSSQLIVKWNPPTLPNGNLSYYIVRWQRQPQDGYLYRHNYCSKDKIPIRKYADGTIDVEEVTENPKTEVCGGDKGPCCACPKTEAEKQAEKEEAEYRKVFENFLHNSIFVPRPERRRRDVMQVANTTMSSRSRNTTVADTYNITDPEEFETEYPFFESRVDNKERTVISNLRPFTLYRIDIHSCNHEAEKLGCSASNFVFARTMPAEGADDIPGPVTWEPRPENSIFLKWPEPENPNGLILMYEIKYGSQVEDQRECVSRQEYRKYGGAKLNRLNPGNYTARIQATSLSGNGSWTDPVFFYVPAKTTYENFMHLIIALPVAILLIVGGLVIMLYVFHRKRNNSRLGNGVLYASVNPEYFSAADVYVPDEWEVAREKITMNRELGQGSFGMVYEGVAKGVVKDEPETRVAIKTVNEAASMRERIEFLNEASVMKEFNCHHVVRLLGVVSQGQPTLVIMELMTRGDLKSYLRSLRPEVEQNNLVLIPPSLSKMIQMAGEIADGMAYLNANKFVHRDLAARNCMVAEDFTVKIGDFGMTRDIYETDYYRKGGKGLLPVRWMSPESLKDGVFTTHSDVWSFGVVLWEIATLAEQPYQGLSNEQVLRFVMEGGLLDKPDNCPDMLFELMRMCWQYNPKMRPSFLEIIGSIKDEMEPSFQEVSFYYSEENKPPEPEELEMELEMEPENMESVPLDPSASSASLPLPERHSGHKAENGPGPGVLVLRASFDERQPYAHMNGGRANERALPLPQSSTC

- binding result [1]: no binding (tested: 1 µg/ml)
- Kd [2]: 0.1 µg/mL
- Kd [3]: 0.1 µg/mL
- IC50 [4]: 0.4 µg/mL
- IC50 of inhibition of IGF-I-induced tyrosine phosphorylation of IGF-IR (ELISA on lysates of IGF-IR-transfected NIH-3T3 cells) [5]: 0.42 µg/mL
B1: anti-IGF-IR antibody 2.12.1fx (antibody, human IgG2, kappa, V domains shown)
VH: QVQLVESGGGLVKPGGSLRLSCAASGFTFSDYYMSWIRQAPGKGLEWVSYISSSGSTRDYADSVKGRFTISRDNAKNSLYLQMNSLRAEDTAVYYCARDGVETTFYYYYYGMDVWGQGTTVTVSS
VL: DIQMTQSPSSLSASVGDRVTITCRASQDIRRDLGWYQQKPGKAPKRLIYAASRLQSGVPSRFSGSGSGTEFTLTISSLQPEDFATYYCLQHNNYPRTFGQGTKVEIKR
notes: also called the antibody of the invention; the antibody of this invention
